According to article PMC3460896, “A Common Origin for the Bacterial Toxin-Antitoxin Systems parD and ccd, Suggested by Analyses of Toxin/Target and Toxin/Antitoxin Interactions” (PLoS ONE, 2012):
Values joined by “and” are separate entries in the source; they are usually repeats but may differ in a detail not shown here. Identical values can stand only once.

B1: CcdA antitoxin (natural protein, plasmid F, UniProt P62552 1-72, looked up)
chain: MKQRITVTVDSDSYQLLKAYDVNISGLVSTTMQNEARRLRAERWKAENQEGMAEVARFIEMNGSFADENRDW
notes: source: E. coli strain SG22623 carrying plasmid pKK223CcdA, purified as described previously [35]
B2: His6-Kis antitoxin (natural protein, plasmid R1, UniProt P13975 1-85, looked up)
chain: MHTTRLKRVGGSVMLTVPPALLNALSLGTDNEVGMVIDNGRLIVEPYRRPQYSLAELLAQCDPNAEISAEEREWLDAPATGQEEI
notes: also called HisKis; source: purified as described [12]

Tests used:
[1] = biological target: T1, CcdB toxin (plasmid F, UniProt P62554 1-101); experiment: native MS; CcdB:CcdA molar ratios 1:2 and 1:4 (CcdA in excess); 100 mM ammonium acetate pH 6.7; lowest protein concentration 10 µM; details: both partners purified
T1 construct: source: E. coli strain B462 carrying plasmid pULB2250, purified (Sephacryl S-200, MonoQ, CM-Sepharose)

[2] = biological target: T1, CcdB toxin; experiment: native MS; CcdB:CcdA molar ratios 2:1 and 1:1 (CcdB equal to or in excess of CcdA); 100 mM ammonium acetate pH 6.7; lowest protein concentration 10 µM; details: both partners purified
[3] = biological target: Kid toxin (plasmid R1) (UniProt P13976); experiment: native MS; Kid:CcdA ratios 2:1, 1:1 and 1:2; 100 mM ammonium acetate pH 6.7; lowest protein concentration 10 µM
[4] = biological target: T1, CcdB toxin; experiment: native MS; CcdB:His6Kis molar ratio 1:4 (Fig. 6D); 100 mM ammonium acetate pH 6.7; lowest protein concentration 5 µM; details: both partners purified
[5] = biological target: the molecule itself; experiment: native MS; CcdB:His6Kis molar ratios 2:1, 1:1 and 1:2 (Fig. 6A-C); 100 mM ammonium acetate pH 6.7; lowest protein concentration 10 µM
[6] = biological target: T1, CcdB toxin; experiment: as above; details: both partners purified

T1 sequence (P62554 whole entry): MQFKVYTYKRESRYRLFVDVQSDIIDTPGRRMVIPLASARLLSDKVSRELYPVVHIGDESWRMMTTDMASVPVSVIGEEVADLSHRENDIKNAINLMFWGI
Kid toxin (plasmid R1), sequence (P13976 24-133): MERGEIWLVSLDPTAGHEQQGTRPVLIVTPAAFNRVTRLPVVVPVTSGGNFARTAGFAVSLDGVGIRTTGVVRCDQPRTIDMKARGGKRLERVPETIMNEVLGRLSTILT

Binder	stoichiometry N [1]	stoichiometry N [2]	stoichiometry N (CcdA per Kid (1:2)) [3]	stoichiometry N (CcdA per Kid (2:2)) [3]	stoichiometry N [4]	stoichiometry N [5]	stoichiometry N [6]
B1	1 CcdA per CcdB (2:2)	0.5 CcdA per CcdB (1:2) and 0.5 CcdA per CcdB (2:4)	0.5	1			
B2					0.5 His6Kis per CcdB (1:2)	2	1 His6Kis per CcdB (2:2)
